Results: US20210386875

Tested on: ^111In-labeled DTPA-pMMP9 peptide on non-radioactive 10 nm gold nanoparticles

MMP9, sequence (chain, as listed by the source): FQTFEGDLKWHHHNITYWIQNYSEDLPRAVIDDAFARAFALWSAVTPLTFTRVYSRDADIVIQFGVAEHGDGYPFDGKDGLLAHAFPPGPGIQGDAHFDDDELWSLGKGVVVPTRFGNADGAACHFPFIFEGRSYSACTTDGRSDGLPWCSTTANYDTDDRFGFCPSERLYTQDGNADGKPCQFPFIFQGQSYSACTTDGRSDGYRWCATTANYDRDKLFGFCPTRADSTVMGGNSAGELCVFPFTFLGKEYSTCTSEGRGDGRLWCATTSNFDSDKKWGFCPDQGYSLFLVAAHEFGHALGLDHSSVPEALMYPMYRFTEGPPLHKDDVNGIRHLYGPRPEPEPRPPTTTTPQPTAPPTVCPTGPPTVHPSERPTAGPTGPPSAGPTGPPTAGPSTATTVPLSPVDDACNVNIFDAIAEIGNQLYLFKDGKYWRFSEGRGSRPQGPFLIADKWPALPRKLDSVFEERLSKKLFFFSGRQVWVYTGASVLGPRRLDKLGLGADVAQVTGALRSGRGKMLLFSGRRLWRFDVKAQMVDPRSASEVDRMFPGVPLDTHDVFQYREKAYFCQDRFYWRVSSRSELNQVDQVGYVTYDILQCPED

MMP9 was tested, and the “percent of ^111In cleaved from the nanoparticle after 48 hours incubation with MMP9 (16% without MMP9)” value was 48% ^111In was cleaved from the nanoparticle compared to only 16% without MMP9.
